Values of other authors, collected in PMC8281132.

Molecular target: CD155 (Homo sapiens) (UniProt P15151)

Kd: 2 nM
Substance: TIGIT (from UniProt Q495A1)
